Experimental data taken from publication doi:10.1101/2021.10.11.464003.

T1: MhAgo_DM (Marinitoga hydrogenitolerans, UniProt A0A1M5A5Z8 1-640, D445A;D515A)
T1 sequence: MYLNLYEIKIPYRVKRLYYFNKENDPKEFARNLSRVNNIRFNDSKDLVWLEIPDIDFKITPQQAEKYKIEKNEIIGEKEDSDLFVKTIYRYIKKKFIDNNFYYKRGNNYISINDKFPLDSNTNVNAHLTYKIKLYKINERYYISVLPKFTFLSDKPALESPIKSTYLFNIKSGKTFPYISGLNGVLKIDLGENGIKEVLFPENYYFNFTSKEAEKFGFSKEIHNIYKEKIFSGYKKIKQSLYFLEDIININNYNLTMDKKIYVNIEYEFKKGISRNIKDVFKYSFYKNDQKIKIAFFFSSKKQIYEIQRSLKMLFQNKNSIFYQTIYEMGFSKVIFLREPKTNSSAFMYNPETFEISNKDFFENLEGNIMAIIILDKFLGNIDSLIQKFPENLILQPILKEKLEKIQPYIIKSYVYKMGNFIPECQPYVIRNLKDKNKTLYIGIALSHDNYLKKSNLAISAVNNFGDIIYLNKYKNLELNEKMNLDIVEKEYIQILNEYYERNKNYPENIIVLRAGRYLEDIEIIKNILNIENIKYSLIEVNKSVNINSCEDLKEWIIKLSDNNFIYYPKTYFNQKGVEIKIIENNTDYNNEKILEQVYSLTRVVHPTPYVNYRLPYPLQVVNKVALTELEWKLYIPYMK

B1: 5'OH-gRNA:tRNA duplex (dsRNA)
RNA 1: CGAGGUAGUAGGUUGUAU
RNA 2: AAACGACGGCCAGUGCCAAGCUUACUAUACAACCUACUACCUCGU
modifications: guide 5'OH
B2: 5'P-gDNA:tRNA duplex (DNA:RNA)
DNA: CGAGGTAGTAGGTTGTAT
RNA: B1 RNA 2
modifications: guide 5' phosphate
B3: 5'P-gRNA:tRNA duplex (dsRNA)
RNA 1: CGAGGUAGUAGGUUGUAU
RNA 2: B1 RNA 2
modifications: guide 5' phosphate
B4: 5'OH-gDNA:tRNA duplex (DNA:RNA)
DNA: CGAGGTAGTAGGTTGTAT
RNA: B1 RNA 2
modifications: guide 5'OH
B5: 5'OH-gDNA:tDNA duplex (dsDNA)
DNA 1: CGAGGTAGTAGGTTGTAT
DNA 2: AAACGACGGCCAGTGCCAAGCTTACTATACAACCTACTACCTCGT
modifications: guide 5'OH
B6: 5'P-gDNA:tDNA duplex (dsDNA)
DNA 1: CGAGGTAGTAGGTTGTAT
DNA 2: B5 DNA 2
modifications: guide 5' phosphate
B7: 5'OH-gRNA:tDNA duplex (DNA:RNA)
RNA: CGAGGUAGUAGGUUGUAU
DNA: B5 DNA 2
modifications: guide 5'OH
B8: 5'P-gRNA:tDNA duplex (DNA:RNA)
RNA: CGAGGUAGUAGGUUGUAU
DNA: B5 DNA 2
modifications: guide 5' phosphate

The binders below were run against T1, MhAgo_DM (assay: EMSA).
Work on B1 yielded a Kd of 125 ± 6.83 nM. In the case of B2, the Kd is reported as 140 ± 5.37 nM. In the case of B3, the Kd is reported as 232 ± 5.07 nM. Binder B4 has a Kd of 102 ± 1.69 nM. With B5 the Kd was 119 ± 4.8 nM. With B6 the Kd was 145 ± 11.5 nM. Work on B7 yielded a Kd of 121 ± 4.66 nM. With B8 the Kd was 148 ± 4.52 nM.
